Data on 12 molecules can be found in patent US20150337042A1 (AbbVie / Abbott, published 2015).

To fix the notation:
B1: Antibody A (AbA) (antibody, human IgG1, kappa, V domains shown)
VH: EVQLQESGPGLVKPSQTLSLTCTVSGYSISRDFAWNWIRQPPGKGLEWMGYISYNGNTRYQPSLKSRITISRDTSKNQFFLKLNSVTAADTATYYCVTASRGFPYWGQGTLVTVSS
VL: DIQMTQSPSSMSVSVGDRVTITCHSSQDINSNIGWLQQKPGKSFKGLIYHGTNLDDGVPSRFSGSGSGTDYTLTISSLQPEDFATYYCVQYAQFPWTFGGGTKLEIKR
notes: IgG1
B2: Antibody K (AbK) (antibody, V domains shown)
VH: B1 VH with Y105W
VL: DIQMTQSPSSMSVSVGDRVTITCHSSQDITYNVGWLQQKPGKSFKGLIYHGSNLDHGVPSRFSGSGSGTDYTLTISSLQPEDFATYYCVQYDDFPWTFGGGTKLEIK
notes: Full length IgG1
B3: Antibody M (AbM) (antibody, V domains shown)
VH: B1 VH with S30G
VL: B2 VL
notes: Full length IgG1
B4: Antibody N (AbN) (antibody, V domains shown)
VH: B1 VH with S30G, N55S
VL: B2 VL
notes: Full length IgG1
B5: Antibody B (AbB) (antibody, V domains shown)
VH: B1 VH with R31N, N55K, Y105W
VL: B2 VL with T30N, Y31S, V33I, S52T, H56D, D92A, D93Q
notes: Converted from scFv into a full length IgG1 antibody
B6: Antibody C (AbC) (antibody, V domains shown)
VH: B1 VH with R31S, N55S, S100G
VL: B2 VL with T30N, Y31S, V33I, S52T, H56D, D92E, D93Q
notes: Full length IgG1
B7: Antibody L (AbL) (antibody, V domains shown)
VH: B1 VH with S30G, R31K, F103L
VL: B2 VL
notes: Full length IgG1
B8: Antibody H (AbH) (antibody, V domains shown)
VH: B1 VH with S30G, R31K, F103L
VL: B2 VL with V33I, S52A, H56D, D93E
notes: Full length IgG1
B9: Antibody F (AbF) (antibody, V domains shown)
VH: B1 VH with N55S
VL: B2 VL with T30N, Y31S, V33I, S52T, H56D, D92A, D93Q
notes: Full length IgG1
B10: Antibody E (AbE) (antibody, V domains shown)
VH: B1 VH with R31S, N55S, S100G
VL: B2 VL with T30N, Y31S, V33L, D93Q
notes: Full length IgG1
B11: Antibody J (AbJ) (antibody, V domains shown)
VH: B1 VH with S30G, R31K, N55S, F103L
VL: B2 VL with V33I, S52A, H56D, D93E
notes: Full length IgG1
B12: Antibody D (AbD) (antibody, V domains shown)
VH: B1 VH with R31S, N55S, S100G
VL: B2 VL with T30N, Y31S, V33L, S52A, D55H, H56D, D92A, D93E
notes: Full length IgG1

Changes are numbered by the printed parent chain.

For one assay, the target named is T1, EGFRvIII on U87MG cells (human, UniProt P00533 298-1210).
T1 construct: also called de2-7 EGFR
The experiment in a line: competition FACS on U87MG de2-7 cells expressing EGFRvIII; competitor Ab1-FITC at 100 nM.
For the molecule B1, the “IC50 (read off the curve)” value is about 30 nM.
On the same count and under the same terms, for B2 the value was about 30 nM; for B3, about 30 nM.

In another assay the target is T2, EGFRvIII extracellular domain (EGFR (1-29)-G-(298-645)-LESRGPF-Myc-NMHTG-6His) (human, UniProt P00533 298-641).
T2 construct: also called recombinant EGFRvIII; not shown: Myc tag
The assay can be described thus: SPR (Biacore), antibody captured via anti-human Fc, antigen injected. The protocol:
(§1) Biacore analysis was performed using a Biacore T100 with a CM5 sensory chip, and test antibodies were captured via anti-human Fc antibodies that were amino coupled to the chip using a standard amine coupling kit according to manufacturer's instructions (GE healthcare). Briefly, a CM5 chip surface was activated with EDC/NHS. Goat anti-human Fc specific polyclonal antibody (Thermo Fisher Scientific Inc., Rockford, Ill.) was diluted to 25 μg/mL in 10 mM sodium acetate (pH 4.5) and injected over the activated surface to achieve immobilization. Unreacted moieties on the biosensor surface were blocked with ethanolamine. The Biacore T100 is a surface plasmon resonance based biosensor for detecting, characterizing and quantifying bimolecular interactions, including the interactions between an antibody and its antigen. Antigen was injected at 80 μL/minute for 3 minutes and dissociation was followed for 15 minutes.
One may read the Kd as the concentration at which binding is half-saturated. Broadly, the koff is the rate constant with which the complex falls apart. Lower therefore signals slow dissociation. By kon is commonly meant the second-order rate constant of association. Higher therefore signals faster complex formation. For B4, the “KD ratio (Ab1/variant Ab)” value amounted to 12.5, the Kd turned out to be 0.75 nM, the koff stood at 0.000103 s⁻¹ and the kon amounted to 137000 M⁻¹ s⁻¹.
For the molecule B1, the “KD ratio (Ab1/variant Ab)” value was 4.1, the off-rate constant (koff) turned out to be 0.000173 s⁻¹ and the kon came to 76100 M⁻¹ s⁻¹.
Consider B5, for which the “KD ratio (Ab1/variant Ab)” value stood at 4.2, the dissociation constant (Kd) amounted to 2.2 nM, the off-rate constant (koff) stood at 0.000173 s⁻¹ and the kon came to 78300 M⁻¹ s⁻¹.
For B2, in that order: 15.8, 0.6 nM, 7.75e-05 s⁻¹ and 130000 M⁻¹ s⁻¹.
For the molecule B6, the “KD ratio (Ab1/variant Ab)” value was 2.6, the equilibrium dissociation constant (Kd) was determined as 3.6 nM, the off-rate constant (koff) was 0.00079 s⁻¹ and the kon is 220000 M⁻¹ s⁻¹.
With B7, the “KD ratio (Ab1/variant Ab)” value was determined as 27.1; the affinity, expressed as Kd, was 0.35 nM; the koff was 6.95e-05 s⁻¹; the association rate constant (kon) stood at 200000 M⁻¹ s⁻¹.
For B8, in that order: 63.1, 0.15 nM, 4.89e-05 s⁻¹ and 327000 M⁻¹ s⁻¹.
Take B9: the “KD ratio (Ab1/variant Ab)” value is 2.4, the Kd was determined as 3.9 nM, the koff was determined as 0.000324 s⁻¹ and the kon was 83600 M⁻¹ s⁻¹.
For B10, in that order: 1.2, 8.2 nM, 0.00158 s⁻¹ and 193000 M⁻¹ s⁻¹.
For B11, in that order: 31.8, 0.3 nM, 9.4e-05 s⁻¹ and 318000 M⁻¹ s⁻¹.
Taken in the same sequence, the figures for B12 were 1.5, 6.1 nM, 0.000866 s⁻¹ and 141000 M⁻¹ s⁻¹.
Turning to B3, the “KD ratio (Ab1/variant Ab)” value was found to be 14.9, the dissociation constant (Kd) came out at 0.63 nM, the koff is 0.000118 s⁻¹ and the association rate constant (kon) turned out to be 187000 M⁻¹ s⁻¹.

A further assay addresses T3, truncated wild type EGFR 1-525 (EGFR1 (1-525)-SRGPF-Myc-NMHTG-6His) (human, UniProt P00533 25-525).
T3 construct: the signal peptide is left out; not shown: Myc tag
The description is as above. The protocol:
as §1
On to B4, for which the “KD ratio (Ab1/variant Ab)” value worked out at 642; the affinity, expressed as Kd, was 3.5 nM; the dissociation rate constant (koff) was 1.71e-05 s⁻¹; the on-rate constant (kon) is 4840 M⁻¹ s⁻¹.
Take B1: the “KD ratio (Ab1/variant Ab)” value was found to be 10.1, the off-rate constant (koff) amounted to 0.000731 s⁻¹ and the kon was 3260 M⁻¹ s⁻¹.
Take B5: the “KD ratio (Ab1/variant Ab)” value stood at 10.5, binding was characterised by a dissociation constant (Kd) of 220 nM, the koff was determined as 0.00119 s⁻¹ and the on-rate constant (kon) worked out at 5460 M⁻¹ s⁻¹.
Regarding B2, the “KD ratio (Ab1/variant Ab)” value is 1370, the koff is 7.92e-06 s⁻¹ and the kon turned out to be 4780 M⁻¹ s⁻¹.
For the molecule B7, the “KD ratio (Ab1/variant Ab)” value worked out at 722, the Kd was determined as 3.1 nM, the koff was found to be 1.78e-05 s⁻¹ and the kon came out at 5650 M⁻¹ s⁻¹.
For B8, in that order: 441, 5.2 nM, 4.07e-05 s⁻¹ and 7900 M⁻¹ s⁻¹.
For B9, in that order: 5.4, 420 nM, 0.000831 s⁻¹ and 1980 M⁻¹ s⁻¹.
B10: the “KD ratio (Ab1/variant Ab)” value was 3.8, the off-rate (koff) is 0.00367 s⁻¹ and the kon is 6170 M⁻¹ s⁻¹.
Take B11: the “KD ratio (Ab1/variant Ab)” value stood at 60.5, the dissociation constant (Kd) amounted to 38 nM, the koff turned out to be 8.27e-05 s⁻¹ and the kon was found to be 2200 M⁻¹ s⁻¹.
Taken in the same sequence, the figures for B12 were 4.1, 550 nM, 0.00322 s⁻¹ and 5820 M⁻¹ s⁻¹.
Taken in the same sequence, the figures for B3 were 387, 5.9 nM, 2.26e-05 s⁻¹ and 3840 M⁻¹ s⁻¹.

A further assay concerns the target T2, EGFRvIII extracellular domain (EGFR …). The experiment in a line: SPR (Biacore T100), antibody captured on anti-human Fc, antigen in solution. The protocol: as §1
Turning to B1, the Kd was 2.3 nM and the “fold increase in affinity versus Ab1” value was 4 fold.

The target in the next assay is T3, truncated wild type EGFR 1-525 (EGFR1 …). The description is as above. The protocol: as §1
Turning to B1, binding was characterised by a dissociation constant (Kd) of 220 nM and the “fold improvement in KD over Ab1” value is 10 fold.
For the molecule B2, the Kd turned out to be 1.7 nM and the “fold increase over the KD of Ab1” value was over 1300 fold.
B10: the Kd was determined as 590 nM and the “fold increase in affinity over the KD of Ab1” value was about 4 fold.

In the next assay the target is T4, wild type human EGFR on cells (A431, NHEK, SCC-15, H292) (human, UniProt P00533 25-1210).
T4 construct: Endogenous receptor of human cell lines and keratinocytes said to express wild type EGFR; also called wild type EGFR; wtEGFR
The assay can be described thus: FACS binding to normal human epidermal keratinocytes (NHEK), AlexaFluor 488 secondary antibody. The protocol: NHEK cells express wild type EGFR.
Cells were harvested when approximately 80% confluent using trypsin, neutralized and washed once in PBS/1% FBS (FACS buffer) then resuspended at 2.5×10⁶ cells/mL in FACS buffer. 100 μL of cells/well were added to a round bottom 96-well plate. 10 μL of a 10x concentration of Ab (final concentrations are listed in the Figures) was added and plate was incubated at 4° C. for one hour. Wells were washed twice with FACS buffer then resuspended in 50 μL of secondary Ab (AlexaFluor 488) diluted in FACS buffer. The plate was incubated at 4° C. for one hour then washed twice with FACS buffer. Cells were then resuspended in 100 μL of PBS/1% formaldehyde and analyzed on a Becton Dickinson LSRII flow cytometer. Data was analyzed using WinList flow cytometry analysis software.
For orientation: Flow cytometry measures light scatter and fluorescence of single cells or particles in a stream.
What is called EC50 (read off the curve) is the midpoint of the concentration-response curve. Low readings indicate a more potent agent, high ones a less potent agent. On to B1, for which the concentration for a half-maximal effect (EC50 (read off the curve)) is about 50 nM.
Still for that read-out and setting: for B2 the value was about 40 nM; for B3, about 40 nM.
